The NTF2 design screens of Basanta et al. (2020)

Experiment: protease stability score; higher = more stable; yeast display proteolysis, trypsin and chymotrypsin;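 note: log10 excess protease needed over predicted unfolded state with 0 meaning unfolded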
“DEENMEVLEKVLDAMRTGDKKKVRDNLDKDARIEIGDHVLNGREEFAKWVVQIKKEIKVQINIQSVDVSNGRVRVHAQVEFRVNGQPQQYTIHIVAEIHNGHIKTLRMSFDDDQQRKFES” gave a protease stability score of 0.924.
Sequence “DEENMEVYQTQLKVEQRGNEEELVKLIDPNAEVRIGDKQVKGRENIAHTIKQETDKMERKIESLNLSAHNGEIHIKATVVQTHNGEPRTDSYVMRIHLHNGRLKQMDVHKSN” has a protease stability score of 0.541.
In the case of “DEENMHKLQEIIRTNDETKFNEMMDPNVEIEVGNKTYHGREEAIKFQRRVNQHVDKIQVDYVEVQGDSLRADYVVQVNGQNVRVDLEIRVEDGRAKEIRLNFRNEEEHKMYEKWLS”, the protease stability score is reported as 1.34.
“DEENQKIFDEYVKALRTNNPERLNEMLDPNARVQVGDKEVHGMDDLSRTVNQMIDNLHLNLKIESVHVRGNTLSVDAEYVLNVNGKPQRRSVEIEIHAHNGTVKFLRMRVDPREEQKIKS” showed a protease stability score of 0.363.
“DEENQKQIKKIWHAWEKGDEQKAQDMVDPNVNIQVGDKHISGQDSLREDLRRKRHEMRVRVRFHDINIDENHISVKIEVLNEKNGRPSTKVVVFEATVHNGKIKSMEFRDDD” gave a protease stability score of 0.494.
In the case of “DEENQQDYARKMNEMIVQNDPDEALRLFDPNVKVDIGDTRIDGRHDLERWVEDLKKQVDHVQLHDVKFRGDHASIHIEMTVNGRTISQIYHIVFHNGKAKEMKVETK”, the protease stability score is reported as 0.567.
For “DEENQRLAEEFIRAFEKGNPDQAATMADPNVKIDIGEKRIHGHEELKKWIEELQRQMRVEVEHYEVEADGDKVIARLIFRQEHNGKPQEDKEQVNIRFHNGRAKSVTIRSTK”, the protease stability score was 0.028.
For “DEENREVAERWLDALKRGDPKKANEQMDPNARLRVGNKTVHGREDFEQMIRKWQEHMSFSVETMTVQVEGNKIIIKATREVVVNGRPHKDTFEFEIEIQNGKIKEITIHFPEQELKEIED”, the protease stability score was 0.815.
Work on “DEENREVMERFVQAFNRNNPDQLNTNADPNAKFVIGDKTINGRERMKKWQEEQNTHMRQHLEVTSISVHGNSITARVRMQFQVNGQPQEVDLTLHATIHNGQIKQLTFNLDKDEKKQIDK” yielded a protease stability score of -0.133.
For “DEENRHAAEQYLTALRTGDEEQLKKNADPNVRVQVGDKQWTGMERYAHDQVRQLKEIHIEIKVDDIKVSNGEVDMKAERNSNHNGKPSRNRASLTIVVHNGKIQEIHWQEDS”, the protease stability score was -0.47.
For “DEENRHQINEMWKQIQTNNPDEVMKQLDKDVQVVVGDKQIRGREEFAKHVEQLLREMDVEYHSIKVKVHNGEAHVKVRHTVDVNGKPREDTLDVQLQMKNGHVKHFELRIDEDKLEKLKR”, the protease stability score was -0.169.
Work on “DEENRHVAQELVKAEKSGDPKRAQELLDPNVRINVGDKTVQGREQHTQELEREKRELRIRIKSMHLKVEGDHVRIEATVSKTQDGQPRESKRSISIHMKNGKAKNIQVTYHK” yielded a protease stability score of 0.13.
In the case of “DEENRKDAEKYMKVTENNNPDEVSKLVDPNAKLEIGDKTYHGDEWMMDQQQQDRDQARIEVKRVDIKVHNGQINARVRFVKEENGKPDRRDVDIKMNIHNGRLKRAQFKHTE”, the protease stability score is reported as 0.064.
Work on “DEENRKIAKKLVEAMHTNDEETLEKMFDPNVRFDVGDREVHGKEQWKREQHKKNREARFEIQRYTISYEGDKAVVRIHQVEDHNGQPREDTYVMHVEVHNGKVKRVVQRKDS” yielded a protease stability score of -0.129.
Sequence “DEENRKILSEVLQALQEGDEHRVRELMDPNARFQVGDKVITGMDNIKKHLQELKRQIKWHFTMKSISAHDGQARATADAEYNHNGRPQDVRVTFRVVFHNGEVHHFSYDYKP” has a protease stability score of 0.583.
In the case of “DEENRKQFEEIVRVWNKGDEKRFNNLFDPNARFRYGDKEYKGNQSLMNWWRHLKKQARVEIDVKEVHVDGDKVHAHFRVTFDINGRPETQDVDVVLTVQNGRAKNFDNRIDPEFMRRVQS”, the protease stability score is reported as 0.141.
With “DEENRKVFEEILEAKKRGDPKQLERNVDPNVKIYYGDKDFHGRSQLSKELEKVRRELHLHLDFKRIEYHGDSVDVELKVNQQHNGKPDESDRVFHARLHNGRLEHVDARDRK” the protease stability score was -0.019.
“DEENRQLAENFLTAMEDNNPEHLSELADPNAKFHYGNKRIHGREKFMHEVEHRNKRIRYSIKSYKITVSGDKIEIDLTFTFRHNGQPDERRRTIHMQMENGQIRSVEYNDNK” showed a protease stability score of 0.337.
“DEENRRNFERLIEAIRTNNPSDVEQLVDPNVRFQVGNEVYNGREQFSKDVERLNRQINITIHVRRLHVHGEKVVVDFTYQQEVNGRPNSHRVKWDATLENGKIKSARNTFDEEFEKELTK” showed a protease stability score of -0.091.
With “DEENSEAMKRWFNAMETGDPDKVKEQLDENAKIEVGDKRIHGRDQAREEVRKMLERWEIRIKIDEIDVHGEKVVVKFRQHNDRNGEPDNQTVVFIAIFDNGKATRWLLTTDG” the protease stability score was 0.289.
With “DEENSKVYEEWLKAVHNGDPDQVRRQIDPNVKINVGEFDLKGRETVAEHVKKMKDEAHVDQDIHSIEIQGDKVRVDAQYSAEINGKPTSNHLDASVNVKNGQIKRVDVEFSK” the protease stability score was -0.131.
With “DEENSRILKELLRAIRRGDEERAKELVDPNAKFQVGNKNVHGRDHWAQELRKEKEKIRFDMHIKHVKVDNGKIKVDLRVQVDVDGRPVTNRVKLTVELHNGRLTHLRVEMDEDQERKLKK” the protease stability score was 0.366.
“DEENTKVAHEWLRNLERNDPKKLNELADPNAHFNVGDKQVQGMDEFERRIEDKKKEMRMKIDDYKARVHNGHVRVDVIVVIDHNGKPDKKRNVQFFDMENGRISRINQQDTG” gave a protease stability score of -0.164.
Sequence “DEENVDRAERLLDALRSGNPNTVRELMDKHVKIQIGDKHLHGREQADKKAEDDSKEINEEVKSVDVKATGNNVVIDMDVSATVDGRPVTFHRVLVIRMHNGKIQEIEIRMSEDDIRNYKK” has a protease stability score of 0.207.
“DEENVDRMEEIIRSGDFKELLELADPNVKVVVGDKEYSGRHVATTVLQSLYEQVDHHKVHSVQNEGETVEFDLKVVVNGQEMRMRFVIVFENGRIKTIQIEFTDPRQEEKFLKNIK” gave a protease stability score of 1.08.
“DEENVEAAHRFFEALNTNNPDELVKQFDPNARFRYGDTDIHGREHFRKWVKDQLDQIRFTLTSMTANVHNGKVRIELRFIKHHNGRPRDVNQEVRADVHNGKIKNLSVSDRG” showed a protease stability score of 0.563.
“DEENVKIARELLKNRTSGNEEHFKRLVDPNARFNVGDTRIHGREEYVKQVRDDFRNSRESIDVRSVSASGDKVEVDMKMHFEHNGQPRSKKVILDAKIHNGRLKEYRVEEEK” showed a protease stability score of -0.045.
Work on “DEENVKIFEEFLRAEQTNDPERAKELIDKDVRIRVGDKTYHGREEWVNTFEEQQRHLKVHYKHVDNTHRNGRVHVRMTFDAVTNGEPKEVTARVEAEFHNGKAKDIQVEYRG” yielded a protease stability score of -0.257.
In the case of “DEENVKKVQEQLERNDREKLKSNVDKNAEVRVGDKTYHGREDAKTVLEQLARQVDNMQWQSIRIKGEHIDAKMVVQINGKHIQVSIELTVHNGKISHFVIHARNEEVNETLKEAVD”, the protease stability score is reported as 0.516.
“DEENVKQAKKFADAMRHGDPEKLAKLADENAKLVIGDKTVHGRDDLRRERKKLNEHSRQHVDVKSIEAENGRVDVTASMTLSHNGKPDQVHVKIHMRITNGQIEEVHVNYKP” showed a protease stability score of -0.492.
Sequence “DEENVKQVERQFKQRDEGNEERVVDQADENASINIGDKRYHGMTDAAKKLVTRLKEIRFERRVVSVTMHNGKFDANYEQTQNTNGNPRTFRYKLVIHMKNGRVKSAHIQEDG” has a protease stability score of 0.062.
Sequence “DEENVKVMEHWNKATSNNDEDKHRELADENANFNIGDKRIHGREDFVRWVQELKNRLRIKVEVNSIQAQGDKVTVHYKLKQETNGEPDTRNVKATARIQNGRVRSLTVKDNQ” has a protease stability score of -0.116.
“DEENVRLARHYADAEARGDHDTIVELLDPNAKVDVGDHEVTGDEHVREELKKKHNQWRAELKDVKASVRGDKLRLKITFVVHINGRPSEQTIDARADIKDGRFKSFSVTIDPQEERHNES” showed a protease stability score of 0.395.
For “DEEQAHRLNEVLKTGDFERLKDQADPNVRIEVGEKRYHGREQFQKFMTIVQETVDDVHVRSIKVRGDTVNVHMVLNVNGVKAEFIVEAHVDDGRVKEIRFRATDDEQKKNWRKIVQ”, the protease stability score was 1.11.
For “DEEQAKKMEHDAKNNNFEKMAEQADPNATAQYGDHRVRGRHEVIDLITHWIEKIDRIEVDSIRVHNGRLEMHFTFEVDGVQVDVVMKAELQNGSLKVLVVTATSEEQQKRLKQAEG”, the protease stability score was 0.234.
Work on “DEEQAKSMVHNMRQNNFEELDKLVDENVRVTVGNKKLHGREEYQKWLENWKKQADRITWDSIDVHGEKIDVEFRAVVNGRTVKQKVDIQFHNGRIKTARYQVTNEELDKIMKEMVE” yielded a protease stability score of 0.866.
“DEEQAKTIMEKWQKAVQTNNDELADKLYKPNVEWENGDEQRQGKEVVVKMLQKAQKKGVEFQVRKAKVEGDRVEMVYDVRIGDQTVTFTVRMDVHGGRVERVKAEASDEVKKALKKG” showed a protease stability score of 0.444.
With “DEEQAKTVMEEWAKAVQKGNTEKLKKLYKPDVEWKNGDKKNQGVDQVETQVKKAKDQGVEFQVRKAEVKGNRVRVVYDAKVGDKTVTFTVEFDVDGGKIERVRVEVDEEAKKVQKQG” the protease stability score was 0.322.
“DEEQARRFREFMEVVRQGDEEKIKRYVDPNARVEVGEETLHGREDIAEWWQKVVRQIRVDITITKMSVSNGKLEIHARAQYEHNGTPEDNRQVIVIQWHNGVAKTIRMEKDG” showed a protease stability score of 0.653.
With “DEEQDARRIAELLDKVFRNNDEDQFMRLMDPNAEVVVGDKTYRGREQARSAMSEIVKHFDHVHLKLDSFSNHNGRVTASNTLHADSNGKKRKVKVTIHFDVKGDKAVIKHLTIE” the protease stability score was 0.866.
“DEEQEARDQIKKYLDIFRTGDPDQAKKLFDKDAEVRIGDKHVRGREQISDFFKKLLHKADHVEYTIQDYDVHGDKVTVHLTVVINVNGDERRNTMVIVIKVQGEKERVQSVRVG” showed a protease stability score of 1.09.
With “DEEQEKHVSHYLELQKHGNEDELLRTVDPNATATVGDKEYHGMKHVAHHLVNTLKRINVKIDRLDLKVEGNTARIDQVRVQKTNGKPDRYRLKQTVQFHNGRFKRVTADVRR” the protease stability score was -0.14.
With “DEEQEKTIHRAHKHNDEDSFRKLFDKDATMQIGNKTFHGREEVETAVTQWHTQVDHLRVDHMRVTNGKLQIDFTAVINGQRIELRVKIKANNGKVKSVKIQARSEEDNEHLKKELD” the protease stability score was 0.407.
For “DEEQHNFANKVWEAITKGDPDEIRRLFDENVRVKVGNKTITGREELSETMEKIKKHLRMRVQVDEIEFDGDQIRVHFTANLNVNGRPVEYRAELIMHVHDGRVKHMHLRVPEQVERELEK”, the protease stability score was 1.05.
In the case of “DEEQHSVADQFNRDLRQGDPDTIRKLLDKDADLRVGDKDLHGRENLIDHMRKMHKKMQVNVDVDSVEDHNGKVIIQATVVEHHNGKPKTYQVDARLHADNGKIKNADFQETS”, the protease stability score is reported as -0.115.
With “DEEQIKDLLERLMRAQQHGDPDRMANYLDENVRVRIGEKDISGREQYKDWNQEQVERIDHFQVHHIEVQGDKAKIDMEMKVDGKRFRFTVRMHIRDGRIDEFRFDPTVQRKIET” the protease stability score was 0.97.
In the case of “DEEQIVNRLWTEAQKNWEEGNETEIANQFDPNARVNVGEKDYHGTEQIMKWVKEILRHADSVRYSIDSIDVNGDTVYVHFTMVMRHNGQKESERIIATMKVDNGEARFTDIKQG”, the protease stability score is reported as 0.737.
Sequence “DEEQKKHVKEMIEAERTGNEEQARKLVDEDVRANYGDHEVHGRETLRKHVRDVKREWSVQIDDVKLRVHNGRVQMHFDFVRDENGRPEKMTATATAEAHNGKIKEINRQDHK” has a protease stability score of -0.204.
“DEEQLDLNRRWMTALKTNNPDDAINLIDPNAKVHVGDKTLSGRENIKTYLKHLIHESRFRFRVQSMNAKNGQVDVSVKQTQSHNGQPSTNRIVVRMEVENGTITSNTIDSKS” showed a protease stability score of -0.073.
For “DEEQLKEYTKEMEHNDEEQFSRMMDKDARVIVGDKTFTGREDAATMLLLIRRRVDHIEIRKITIQGDHVVVHQVVQVNGKEAEFEREVHVKNGHIKEVHIQARDEDDERVLHQAMD”, the protease stability score was 0.468.
